These results are taken from patent US20240254227A1 (Alector, published 2024).

First the molecules themselves.
T1: murine CD300LB stably expressed on Jurkat cells (mouse, UniProt Q3U497 18-209)
T1 construct: also called muCD300LB; mouse CD300LB
T1 sequence: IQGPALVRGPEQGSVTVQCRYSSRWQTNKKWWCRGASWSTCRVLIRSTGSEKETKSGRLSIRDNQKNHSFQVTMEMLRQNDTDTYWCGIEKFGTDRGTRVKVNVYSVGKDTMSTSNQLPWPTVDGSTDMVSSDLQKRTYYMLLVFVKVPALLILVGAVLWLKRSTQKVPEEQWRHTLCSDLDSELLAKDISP

T2: human CD300LB-Fc (human)
T2 construct: hIgG1-Fc fusion; the entry is the whole fusion chain
T2 chain: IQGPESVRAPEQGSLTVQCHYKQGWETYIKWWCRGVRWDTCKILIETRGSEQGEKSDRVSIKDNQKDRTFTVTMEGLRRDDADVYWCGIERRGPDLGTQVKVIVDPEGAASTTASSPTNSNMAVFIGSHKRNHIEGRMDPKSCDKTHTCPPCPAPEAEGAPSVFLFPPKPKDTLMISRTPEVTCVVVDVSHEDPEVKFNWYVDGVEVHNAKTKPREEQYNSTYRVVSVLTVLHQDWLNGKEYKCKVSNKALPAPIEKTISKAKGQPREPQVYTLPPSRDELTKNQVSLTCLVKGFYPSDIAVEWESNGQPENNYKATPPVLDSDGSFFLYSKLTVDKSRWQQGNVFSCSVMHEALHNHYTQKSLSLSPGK

T3: murine CD300D-Fc (mouse)
T3 construct: mouse IgG2a-Fc fusion (R&D Systems); the entry is the whole fusion chain; also called mCD300D; Mouse CD300D-Fc
T3 chain: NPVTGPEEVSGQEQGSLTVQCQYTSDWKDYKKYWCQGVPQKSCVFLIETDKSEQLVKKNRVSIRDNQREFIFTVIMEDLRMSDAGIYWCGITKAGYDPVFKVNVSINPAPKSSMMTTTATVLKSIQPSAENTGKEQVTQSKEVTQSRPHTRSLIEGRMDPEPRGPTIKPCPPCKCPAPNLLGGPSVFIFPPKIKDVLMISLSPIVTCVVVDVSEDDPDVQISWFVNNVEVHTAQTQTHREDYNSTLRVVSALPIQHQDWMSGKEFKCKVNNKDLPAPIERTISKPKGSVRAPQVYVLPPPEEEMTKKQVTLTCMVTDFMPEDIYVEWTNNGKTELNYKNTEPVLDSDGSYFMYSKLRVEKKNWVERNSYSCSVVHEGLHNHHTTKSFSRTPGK

T4: human CD300LB on primary human macrophages (human, UniProt A8K4G0 18-201)
T4 sequence: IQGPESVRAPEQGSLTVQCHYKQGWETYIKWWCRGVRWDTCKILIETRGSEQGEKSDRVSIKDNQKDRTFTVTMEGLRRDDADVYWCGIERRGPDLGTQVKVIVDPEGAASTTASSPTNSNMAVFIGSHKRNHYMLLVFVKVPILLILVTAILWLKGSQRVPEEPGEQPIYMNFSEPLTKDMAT

B1: anti-CD300LB antibody CD-02 (antibody, V domains shown)
VH: QVQLQQPGAELVRPGSSVKLSCQASGYTFTNYWMHWVRQRPIQGLEWIGNIDPSDSETHYNQKFKDRATLTVDKSSSTAYMQLSSLTSEDSAVYYCARSGVYDDEGGDYWGQGTTLTVSS
VL: ENVLTQSPAIMSASPGEKVTMTCSASSSVSYIHWYQQKSSTSPKLWIYDTSKLASGVPGRFSGSGSGNSYSLTISSMETEDVATYYCFQGSGYPLTFGAGTKLELK
B2: anti-CD300LB antibody CD-05 (antibody, V domains shown)
VH: QVQLVQSGAEVKKPGASVKVSCKASGYTFSRYYINWVRQAPGQGLEWMGWINPNSGGTNYAQKFQGRVTMTRDTSTSTVYMELSSLRSEDTAVYYCTTDQLRFGKTGPYYGMDVWGQGTTVTVSS
VL: DIQMTQSPSSLSASVGDRVTITCRASQNIGTYLNWYQQKPGKAPKLLIYAASSLQSGVPSRFSGSGSGTDFTLTISSLQPEDFATYYCQQSYSDTLTFGGGTKVEIK
B3: anti-CD300LB antibody CD-01 (antibody, V domains shown)
VH: RVQLQQSGAELVRPGASVTLSCKASGFTFTDFEMHWVKKTPVHGLEWIGAIDPESGNTAYNQKFRGKATLTADKSSSTAYMELRYLTSEDSAVYYCTPLISGADYWGQGTTLTVSS
VL: DVVMTQSPLSLPVSLGDQASISCRSSQSLVHSDGNTYLYWYLQKPGQSPKLLIYKVSNRFSGVPDRFSGSGSGTDFTFKISRVGAEDLGVYFCSQSTHVPWTFGGGTKLEII
B4: anti-CD300LB antibody CD-03 (antibody, V domains shown)
VH: EVQLQQSGPELVKPGASVKISCKASGYTFTDYYINWVRQSHGKSLECIGDINPNNGGTNYNQKFKGKATLTVDRSSNTAYMEFRSLTFDDSALYYCAAEGAYWGQGTLVTVSA
VL: not shown
B5: anti-CD300LB antibody CD-18 (antibody, V domains shown)
VH: DVQLQESGPDLVKPSQSLSLTCTVTGYSITSGYSWHWIRQFPDNKLEWMGYILSRGDTNFNPSLKSRISITRSTSNNQFFLHFNSVTTEDTATYYCARDFFDYWGQGTTLTVSS
VL: DVLMTQTPLSLPVSLGDQASISCRSSQSIVHSNGNTYLEWYLQKPGQSPKLLIYKVSDRFSGVPDRFSGSGSGTDFTLKISRVEAEDLGVYFCFQGSHVPYTFGGGTKLEIK
B6: anti-CD300LB antibody CD-12 (antibody, V domains shown)
VH: QIQLVQSGPELKKPGETVKISCKASGYTFTDYSMHWVRQAPGKGLKWMAWINTETGEATHADDFKGRFDFSLDTSASTAYLQIKNLKNEDTGIYFCVCYGSSYGMDYWGQGTSVTVSS
VL: DIVLTQSPASLPVSLGQRATISCRASKSVRTSGASYMHWYQQKPGQPPKLLIYLASNLKSGVPTRFSGSGSGTDFTLNIHPVEEEDAATYYCQHNREVPPTFGGGTKLEIK
B7: anti-CD300LB antibody CD-15 (antibody, V domains shown)
VH: QIQLVQSGPELKKPGETVKISCQVSGYTFTDYSMHWLKQAPGKGLKWMAWINTETGESTYTDEFKGRFVFSLETSVRTAYLKINNLKNEDTATYFCGTYGSSYGMAYWGQGTSVTVSS
VL: DIVLTQSPASLPVSLGQRATISCRASKSVSTSGSSYLHWYQQKPGQPPKLLIYLASKLESGVPARFRGSGSGTDFTLNIHPVEEEDAATYYCQHNREVPPTFGGGTKLEIK
B8: anti-CD300LB antibody CD-17 (antibody, V domains shown)
VH: QIQLVQSGPELKKPGETVKISCKASGYTLTDYSMHWVKQAPGKGLKWMGWINTETGEPRYGDDFKGRFAFSLETSASSAYLQINNLKNDDTATYFCATYGRSYGMDFWGQGTSVTVSS
VL: DIVLTQSPASLAVSLGQRATISCRASKSVSPSGHSYMHWYQQKPGQPPKLLIYLASNLKSGVPARFSGSGSGTDFTLNIHPVEEGDAATYYCQHNRELPPTFGGGSKLEIK
B9: anti-CD300LB antibody CD-11 (antibody, V domains shown)
VH: QIQLVQSGPEVKKPGETVKISCKASGYTLTDYSMHWVMQTPGTGLKWMAWMNTETGEPTYADDFKGRFAFSLETSAGTAYLQIDNLKNEDTATYFCATYGKSYGMKYWGQGTSVTVSS
VL: DIVLTQSPPSLAVSLGQRATISCRATKSVSPYLHWYQQTPGQPPKLLIYLASNLDSGVPARFSGSGSGTDFTLNIHPVEEEDAATYYCQHNKELPPTFGGGTRLEIK
B10: anti-CD300LB antibody CD-07 (antibody, V domains shown)
VH: QVQLVQSGAEVKKPGASVKVSCKASGYTFTNYRMHWVRQAPGQGLEWMGWINPNSGGTIYAQKFQGRVTMTRDTSTSTVYMELSSLRSEDTAVYYCARDLDYWGQGTLVTVSS
VL: DIQMTQSPSSLSASVGDRVTITCQASQDISNYLNWYQQKPGKAPKLLIYGASSLQSGVPSRFSGSGSGTDFTLTISSLQPEDFATYYCQQSYSTPWTFGPGTKVEIK
B11: anti-CD300LB antibody CD-06 (antibody, V domains shown)
VH: QVQLVQSGAEVKKPGASVKVSCKASGYTFTTYAVHWVRQAPGQGLEWMGIVNPNSGGTNYAQKFQGRVTMTRDTSTSTVYMELSSLRSEDTAVYYCARDIVPMNNFYNYYYGMDVWGQGTTVTVSS
VL: DIQMTQSPSSLSASVGDRVTITCRASQSISSYLNWYQQKPGKAPKLLIYATSTLQSGVPSRFSGSGSGTDFTLTISSLQPEDFATYYCQQSYRIPYTFGQGTKVEIK

The target of one assay is T1, murine CD300LB stably expressed on …. Briefly: flow cytometry, stable Jurkat cells. In general terms: A flow cytometer gives signals particle by particle.
As for B1, the binding result was “no binding (tested: 10 ug/mL)”.

Another assay deals with T2, human CD300LB-Fc. Briefly: SPR (Carterra LSA), antibody immobilised, Fc fusion at 300 or 600 nM. The protocol: (§1) Binding of mouse anti-CD300LB IgG1 antibodies of the present disclosure to human and murine CD300 orthologs were evaluated by surface plasmon resonance (SPR) using a Carterra LSA instrument (Carterra, Salt Lake City, UT). […] A HC200M sensor chip (Carterra) was activated using the single channel flow cell with a 7-minute injection of a 1:1:1 mixture of 100 mM MES pH 5.5, 100 mM sulfo-NHS, 400 mM EDC (all reconstituted in MES pH 5.5; 100 μL of each mixed in vial immediately before running assay). After switching to the multi-channel array flow cell, the antibodies were injected over the activated chip in a 96-spot array for 10 minutes. The remaining unconjugated active groups on the chip were then blocked by injecting 1M Ethanolamine pH 8.5 (Carterra) for 7 minutes using the single channel flow cell. After priming with running buffer (HBS-TE, Carterra) with 0.5 mg/ml BSA (Sigma), the immobilized anti-CD300LB antibodies were tested for their ability to bind human and mouse recombinant CD300LB extracellular domains. Human CD300 family members and mouse CD300A were hIgG1-Fc fusions, while mouse CD300LB, mouse CD300C, mouse CD300D, and mouse CD300E were mouse IgG2a-Fc fusions (R&D Systems). Binding was assessed by injecting each analyte over the entire antibody array using the single channel flow cell. CD300 analytes were diluted to 300 nM or 600 nM in running buffer and injected in series without regeneration. Two or three buffer blanks were run between each mouse or human ortholog, respectively. Data were processed and analyzed using NextGenKIT high-throughput kinetics analysis software (Carterra).
Results of anti-CD300LB antibody binding to human CD300 family members is provided below in Table 7.
Consider B2, for which the “SPR binding (control subtracted)” value was 51. Still for that read-out and setting: the result for B3 reads 3.71; that for B4, 43. Same read-out and setting: the figure for B1 is 21.

The target of another assay is T3, murine CD300D-Fc. The assay is described as above. The protocol:
as §1
Results of anti-CD300LB antibody binding to murine CD300 family members is provided below in Table 8.
As to B5, the “SPR binding (control subtracted)” value stood at 0.6. Take B6: the “SPR binding (control subtracted)” value was found to be 0.6. The same measure, in the same setting: the figure for B7 is 1.7; for B8 it is 0.8.

With B9, the “SPR binding (control subtracted)” value is -0.1.

The target in the next assay is T4, human CD300LB on primary human …. Briefly: flow cytometry, primary human macrophages donor 1275, 10 ug/mL antibody, isotype control subtracted. The protocol:
Human monocytes from various donors were isolated from whole blood using RosetteSep Human Monocyte Enrichment Cocktail (Stemcell technologies) and Ficoll centrifugation per manufacturer protocols. After lysing red blood cells with ACK lysing buffer, monocytes were resuspended in complete media (RPMI, 10% FBS, Pen/Strep, L-glutamine, HEPES, non-essential amino acid, Sodium pyruvate). To obtain macrophages from these isolated monocytes, 100 ng/ml human M-CSF and 8% v/v human serum were added to the cells for 5-7 days. Cells were counted on the day of the experiment and plated at 100,000 cells per well in a round-bottom 96 well plate. Cells were incubated with TruStain Fc block and 10 μg/mL antibody for 1 hour on ice before washing with 250 μL ice cold PBS twice. Cells were then incubated with the appropriate APC-conjugated secondary antibodies for 20 minutes in the dark on ice. Finally, cells were washed twice with ice cold FACS buffer and then resuspended in 100 μL FACS buffer containing 1% propidium iodide. Samples were immediately analyzed using a BD FACSCanto flow cytometer. The gMFI was calculated using FlowJo software minus the gMFI of the appropriate isotype control.
In the case of B10, the gMFI is 2700 gMFI. Same read-out and setting: the figure for B2 is 61000 gMFI; for B11 it is 26900 gMFI.
